Reference: publication PMC10244946
Like-named read-outs stand apart in the source and are kept apart here.

Experiments:
[1] = biological target: HER2 on HER2-expressing BT474 and SKOV-3 cells (human (endogenous in BT474 and SKOV-3)) (UniProt P04626); test: radioligand binding
[2] = biological target: HER2 (antigen of the Lindmo immunoreactive fraction assay; form not told); test: Lindmo assay
[3] = biological target: HER2 on HER2-expressing BT474 and SKOV-3 cells (human (endogenous in BT474 and SKOV-3)) (UniProt P04626); test: radioligand binding; remark: listed apart in the source

iso-[^211At]AGMB-PODS-5F7GGC (VHH)
percent of input activity bound to cells after 1 h at 4 °C [1]: 7.5%
immunoreactive fraction [2]: 85.8%

[^177Lu]Lu-DOTA-PODS-5F7GGC (VHH)
immunoreactive fraction [2]: 71.2%

[^125I]MEGMIB-5F7GGC (VHH)
percent associated with cells after 1 h at 4 °C [1]: 5.8%

iso-[^131I]GMIB-PODS-5F7GGC (VHH)
Kd [3]: 3.3 nM
Kd [1]: 5.9 nM
percent of input activity bound to cells after 1 h at 4 °C [1]: 7.4%
immunoreactive fraction [2]: 84%

[^211At]MEAGMB-5F7GGC (VHH)
Kd [1]: 3.4 nM
immunoreactive fraction [2]: 69%
